± gives the standard deviation of the averaged measurements.
How the values were obtained:
MCF7 = assay: percentage of EdU-negative (G0-arrested) nuclei per well, 72 h; higher = more G0 arrest; settings: reference: sequence is the full UniProt precursor, the tested protein was the secreted form or ectodomain
hTERT-HMEC = assay: as above; settings: reference: sequence is the full UniProt precursor, the tested protein was the secreted form or ectodomain
[1] = protein concentration 0.0225 µM
[2] = protein concentration 0.00725 µM
[3] = protein concentration 0.0725 µM
[4] = protein concentration 0.0357143 µM
[5] = protein concentration 0.357143 µM
[6] = protein concentration 0.03125 µM
[7] = protein concentration 0.3125 µM
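Further: secreted proteins added to cultured cells, EdU pulse at the end, nuclei found by Hoechst imaging, EdU status from nuclear versus surrounding ring intensity ratio, PBS as neutral control.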

Sequence: MKLLHVFLLFLCFHLRFCKVTYTSQEDLVEKKCLAKKYTHLSCDKVFCQPWQRCIEGTCVCKLPYQCPKNGTAVCATNRRSFPTYCQQKSLECLHPGTKFLNNGTCTAEGKFSVSLKHGNTDSEGIVEVKLVDQDKTMFICKSSWSMREANVACLDLGFQQGADTQRRFKLSDLSINSTECLHVHCRGLETSLAECTFTKRRTMGYQDFADVVCYTQKADSPMDDFFQCVNGKYISQMKACDGINDCGDQSDELCCKACQGKGFHCKSGVCIPSQYQCNGEVDCITGEDEVGCAGFASVTQEETEILTADMDAERRRIKSLLPKLSCGVKNRMHIRRKRIVGGKRAQLGDLPWQVAIKDASGITCGGIYIGGCWILTAAHCLRASKTHRYQIWTTVVDWIHPDLKRIVIEYVDRIIFHENYNAGTYQNDIALIEMKKDGNKKDCELPRSIPACVPWSPYLFQPNDTCIVSGWGREKDNERVFSLQWGEVKLISNCSKFYGNRFYEKEMECAGTYDGSIDACKGDSGGPLVCMDANNVTYVWGVVSWGENCGKPEFPGVYTKVANYFDWISYHVGRPFISQYNV
- percentage of EdU-negative (MCF7; protein concentration 0.021 µM): 24.6 ± 0.98%
- percentage of EdU-negative (MCF7; protein concentration 0.21 µM): 27.3 ± 1.3%
- percentage of EdU-negative (hTERT-HMEC; protein concentration 0.021 µM): 4.11 ± 0.1%
- percentage of EdU-negative (hTERT-HMEC; protein concentration 0.21 µM): 4.288 ± 0.024%

Sequence: MAILMLSLQLILLLIPSISHEAHKTSLSSWKHDQDWANVSNMTFSNGKLRVKGIYYRNADICSRHRVTSAGLTLQDLQLWCNLRSVARGQIPSTL [Q6UY13]
- percentage of EdU-negative (MCF7; [1]): 26.9 ± 1.6%
- percentage of EdU-negative (MCF7; protein concentration 0.225 µM): 27.81 ± 0.22%
- percentage of EdU-negative (hTERT-HMEC; [1]): 4.87 ± 0.78%
- percentage of EdU-negative (hTERT-HMEC; protein concentration 0.225 µM): 5.92 ± 0.39%

Sequence: MRPPQCLLHTPSLASPLLLLLLWLLGGGVGAEGREDAELLVTVRGGRLRGIRLKTPGGPVSAFLGIPFAEPPMGPRRFLPPEPKQPWSGVVDATTFQSVCYQYVDTLYPGFEGTEMWNPNRELSEDCLYLNVWTPYPRPTSPTPVLVWIYGGGFYSGASSLDVYDGRFLVQAERTVLVSMNYRVGAFGFLALPGSREAPGNVGLLDQRLALQWVQENVAAFGGDPTSVTLFGESAGAASVGMHLLSPPSRGLFHRAVLQSGAPNGPWATVGMGEARRRATQLAHLVGCPPGGTGGNDTELVACLRTRPAQVLVNHEWHVLPQESVFRFSFVPVVDGDFLSDTPEALINAGDFHGLQVLVGVVKDEGSYFLVYGAPGFSKDNESLISRAEFLAGVRVGVPQVSDLAAEAVVLHYTDWLHPEDPARLREALSDVVGDHNVVCPVAQLAGRLAAQGARVYAYVFEHRASTLSWPLWMGVPHGYEIEFIFGIPLDPSRNYTAEEKIFAQRLMRYWANFARTGDPNEPRDPKAPQWPPYTAGAQQYVSLDLRPLEVRRGLRAQACAFWNRFLPKLLSATDTLDEAERQWKAEFHRWSSYMVHWKNQFDHYSKQDRCSDL
- percentage of EdU-negative (MCF7; [2]): 25.5 ± 3.2%
- percentage of EdU-negative (MCF7; [3]): 27.8 ± 2.5%
- percentage of EdU-negative (hTERT-HMEC; [2]): 4.96 ± 0.24%
- percentage of EdU-negative (hTERT-HMEC; [3]): 8.871 ± 0.06%

Sequence: MWLRAFILATLSASAAWGHPSSPPVVDTVHGKVLGKFVSLEGFAQPVAIFLGIPFAKPPLGPLRFTPPQPAEPWSFVKNATSYPPMCTQDPKAGQLLSELFTNRKENIPLKLSEDCLYLNIYTPADLTKKNRLPVMVWIHGGGLMVGAASTYDGLALAAHENVVVVTIQYRLGIWGFFSTGDEHSRGNWGHLDQVAALRWVQDNIASFGGNPGSVTIFGESAGGESVSVLVLSPLAKNLFHRAISESGVALTSVLVKKGDVKPLAEQIAITAGCKTTTSAVMVHCLRQKTEEELLETTLKMKFLSLDLQGDPRESQPLLGTVIDGMLLLKTPEELQAERNFHTVPYMVGINKQEFGWLIPMQLMSYPLSEGQLDQKTAMSLLWKSYPLVCIAKELIPEATEKYLGGTDDTVKKKDLFLDLIADVMFGVPSVIVARNHRDAGAPTYMYEFQYRPSFSSDMKPKTVIGDHGDELFSVFGAPFLKEGASEEEIRLSKMVMKFWANFARNGNPNGEGLPHWPEYNQKEGYLQIGANTQAAQKLKDKEVAFWTNLFAKKAVEKPPQTEHIEL
- percentage of EdU-negative (MCF7; [4]): 23.32 ± 0.21%
- percentage of EdU-negative (MCF7; [5]): 24.5 ± 1.9%
- percentage of EdU-negative (hTERT-HMEC; [4]): 4.96 ± 0.78%
- percentage of EdU-negative (hTERT-HMEC; [5]): 6.05 ± 0.03%

Sequence: MKLVFLVLLFLGALGLCLAGRRRSVQWCAVSQPEATKCFQWQRNMRKVRGPPVSCIKRDSPIQCIQAIAENRADAVTLDGGFIYEAGLAPYKLRPVAAEVYGTERQPRTHYYAVAVVKKGGSFQLNELQGLKSCHTGLRRTAGWNVPIGTLRPFLNWTGPPEPIEAAVARFFSASCVPGADKGQFPNLCRLCAGTGENKCAFSSQEPYFSYSGAFKCLRDGAGDVAFIRESTVFEDLSDEAERDEYELLCPDNTRKPVDKFKDCHLARVPSHAVVARSVNGKEDAIWNLLRQAQEKFGKDKSPKFQLFGSPSGQKDLLFKDSAIGFSRVPPRIDSGLYLGSGYFTAIQNLRKSEEEVAARRARVVWCAVGEQELRKCNQWSGLSEGSVTCSSASTTEDCIALVLKGEADAMSLDGGYVYTAGKCGLVPVLAENYKSQQSSDPDPNCVDRPVEGYLAVAVVRRSDTSLTWNSVKGKKSCHTAVDRTAGWNIPMGLLFNQTGSCKFDEYFSQSCAPGSDPRSNLCALCIGDEQGENKCVPNSNERYYGYTGAFRCLAENAGDVAFVKDVTVLQNTDGNNNEAWAKDLKLADFALLCLDGKRKPVTEARSCHLAMAPNHAVVSRMDKVERLKQVLLHQQAKFGRNGSDCPDKFCLFQSETKNLLFNDNTECLARLHGKTTYEKYLGPQYVAGITNLKKCSTSPLLEACEFLRK [E7EQB2]
- percentage of EdU-negative (MCF7; protein concentration 0.01 µM): 22.5 ± 0.39%
- percentage of EdU-negative (MCF7; protein concentration 0.1 µM): 24.6 ± 0.5%
- percentage of EdU-negative (hTERT-HMEC; protein concentration 0.01 µM): 5.27 ± 0.58%
- percentage of EdU-negative (hTERT-HMEC; protein concentration 0.1 µM): 5.87 ± 0.35%

Sequence: MEMLQGLLLLLLLSMGGAWASREPLRPWCHPINAILAVEKEGCPVCITVNTTICAGYCPTMMRVLQAVLPPLPQVVCTYRDVRFESIRLPGCPRGVDPVVSFPVALSCRCGPCRRSTSDCGGPKDHPLTCDHPQLSGLLFL
- percentage of EdU-negative (MCF7; [6]): 25.1 ± 1.9%
- percentage of EdU-negative (MCF7; [7]): 25.5 ± 0.84%
- percentage of EdU-negative (hTERT-HMEC; [6]): 5.24 ± 1%
- percentage of EdU-negative (hTERT-HMEC; [7]): 5.19 ± 1%
